Values joined by “and” are separate entries in the source; they are usually repeats but may differ in a detail not shown here. Identical values can stand only once.
Target: branched K11/K48 triubiquitin (Homo sapiens) (UniProt P0CG48)
Assay: NMR
Settings: modification not given

Sequence of hHR23A UBA2 UBA2, P54725 (P54725 315-361): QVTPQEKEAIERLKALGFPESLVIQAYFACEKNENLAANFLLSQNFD

hHR23A UBA2 UBA2, P54725
Kd: 26 µM and 248 µM

From publication PMC6996796
